From patent publication US7026282B1, “Peptide antagonists of the human urokinase receptor and method for selecting them” (Cancerforskningsfonden AF 1989 (Fonden Til Fremme AF …, priority 1998, dated 2006)
Entries after “also recorded” stand apart in the source; their conditions may differ. One block for each molecule: values may come before it. Positions of bridges follow the written chain, without caps; N, C: chain ends. Non-standard residues stand in square brackets, D forms with d. Residues, ends and D or L forms follow the SMILES beside them. Chains are numbered I, II in the order given. No end group written: not given here. Cha = N[C@@H](CC1CCCCC1)C(=O)O; βAla = NCCC(=O)O

What was measured:
[1] = Peptide stability in mouse serum ex vivo, read out by ATF cell-binding inhibition; type: in vitro ADME; settings: 10% mouse serum, up to 24 hours, 37° C.
Procedure: Mouse blood was collected from anaesthetised mice (femal nu/nu-META/Bom (Bomholtgaard, Ry, Denmark)) by cardiac puncture. The blood samples were allowed to clot for 30 min at room temperature, followed by centrifugation at 1,000×g for 10 min at 20° C., and the sera were sterile filtered using 0.8 μm/0.2 μm filters (Acrodisc PF, Gelman Science, MI) and then stored at 4° C. until use. The peptide antagonists were added to fresh pooled mouse serum at the indicated concentrations (FIG. 5) and incubated at 37° C. for different periods, between 0 hours and 24 hours. Serum incubated samples were diluted 1:10 in binding buffer (0.1% bovine serum albumin and 5 mM Hepes in Eagles MEM supplemented with Glutamax-1, pH 7.4). Subsequently, cell binding experiments in the presence of ^125I-labelled human ATF were performed in duplicates as above, by preincubating MDA-MB-231 BAG cells at 37° C. 15 min with the 1:10 diluted serum incubated samples ± peptides. In parallel, peptides diluted in binding buffer alone were included as controls.
AE118 and AE78 (for comparison) were incubated at 37° C. in the presence of 10% mouse serum for different time intervals, up to 24 hours. The incubation mixtures were tested for their ability to inhibit binding of radio-labelled human uPA amino terminal fragment (ATF) to monolayer cultures of human MDA-MB-231 breast cancer cells, as described in Example 7.

[2] = biological target: T1, neuramimidase-treated human suPAR (soluble recombinant uPAR) (Homo sapiens, UniProt Q03405); assay: Biacore Binding Assay (surface plasmon resonance), ligand binding to immobilised suPAR; settings: for koff: Biacore, 5° C., immobilised suPAR, read-out: kdiss (dissociation rate constant, off-rate)
T1 construct: A soluble recombinant variant of human uPAR (suPAR) was expressed in Chinese hamster ovary (dhfr) cells; made in house; host or cells: Chinese hamster ovary (dhfr) cells
Procedure: Association rate constants (kass), dissociation rate constants (kdiss) and equilibrium binding constants (kd) for various synthetic peptides and receptor binding derivatives of human uPA were determined by surface plasmon resonance (R. Karlsson et al. (1991) J. Immunol. Meths. 145:229–240) using a BIAcore2000™ instrument (Pharmacia Biosensor, Uppsala, Sweden). Due to the low isoelectric point of uPAR (pI≈4.5) terminal sialic acid residues were removed from its N-linked carbohydrates to facilitate chemical immobilisation on the sensor chip. This was accomplished by incubating purified suPAR (1 mg/ml in 50 mM phosphate, 150 mM NaCl, pH 7.4) with 5 μg/ml neuramimidase for 4 hours at 37° C. […] Coupling of the neuramimidase-treated suPAR to a BIAcore sensor chip was achieved by injection of 20 μg/ml suPAR in 10 mM sodium acetate pH 5.0 for 6 minutes at a flow rate of […] per minute using a carboxymethylated dextran matrix (CM5 sensor chip) preactivated with N-hydroxysuccinimide/N-ethyl-N′-[3-([…])propyl]carbodiimide according to the manufacturer's recommendations. Approximately 1,500–2,000 resonance units (RU) were immobilised by this procedure (corresponding to 1–2 ng suPAR/mrn^2).
Sensorgrams (RU versus time) were recorded (FIG. 2) at a flow rate of 10 μl per min at 5° C. using several different concentrations of the ligand (synthetic peptides, uPA, the amino-terminal fragment (ATF) of uPA, or the growth factor domain (GFD) of uPA) in the range of 10 to 1000 nM in running buffer (10 mM HEPES, 150 mM NaCl, 3 mM EDTA (pH 7.4) including 0.005% surfactant P-20). Stock solutions of peptides from combinatorial chemistry were made in DMSO (10 mg peptide/ml DMSO). The sensor chip was regenerated at the end of each run by injection of 0.1 M acetic acid, 0.5 M NaCl. Data obtained from parallel mock coupled flow cells (subjected to the coupling procedure in the presence of buffer only) served as blank sensorgrams for subtraction of changes in bulk refractive index. The sensorgrams obtained were analysed by non-linear least squares fitting using BIAevaluation 2.0 software (Pharmacia Biosensor, Uppsala, Sweden) assuming single-site association and dissociation models.
Purified human suPAR (1 mg/ml in 50 mM phosphate, 150 mM NaCl, pH 7.4) was incubated with 5 μg/ml neuramimidase for 4 hours at 37° C.
In order to couple the neuramimidase-treated suPAR to a BIAcore sensor chip, 20 μg/ml suPAR in 10 mM sodium acetate (pH 5.0) was injected for 6 minutes at a flow rate of 5 μl per minute using a carboxymethylated dextran matrix (CM5 sensor chip), thereby immobilising approximately 1,500–2,000 resonance units (RU), which correspond to 1–2 ng suPAR/mm^2. The CM5 sensor chip was preactivated with N-hydroxysuccinimide/N-ethyl-N′-[3-([…])propyl]carbodiimide in accordance with the manufacturer's recommendations.
Surface plasmon resonance sensorgrams (RU versus time) were recorded at a flow rate of 10 μl per min at 5° C. using several different concentrations of the ligand (i.e. the relevant peptide or GFD) in the range from 10 to 1000 nM in running buffer (10 mM HEPES, 150 mM NaCl, 3 mM EDTA (pH 7.4) including 0.005% surfactant P-20).
The sensor chip was regenerated at the end of each run by injection of 0.1 M acetic acid, 0.5 M NaCl.
Data from parallel mock coupled flow cells (subjected to the coupling procedure in the presence of buffer only) served as blank sensorgrams for subtraction of changes in bulk refractive index.
The obtained sensorgrams were analysed by non-linear least squares fitting using BIAevaluation 2.0 software (Pharmacia Biosensor, Uppsala, Sweden) assuming single-site ssociation and dissociation models.

[3] = biological target: cell-surface uPAR on monolayer cultures of human MDA-MB-231 breast cancer cells (Homo sapiens, UniProt Q03405); assay: Cell binding experiments with 125I-labelled human ATF (uPA/uPAR Binding Assay)
Sequence of cell-surface uPAR on monolayer cultures of human MDA-MB-231 breast cancer cells (Q03405 23-305): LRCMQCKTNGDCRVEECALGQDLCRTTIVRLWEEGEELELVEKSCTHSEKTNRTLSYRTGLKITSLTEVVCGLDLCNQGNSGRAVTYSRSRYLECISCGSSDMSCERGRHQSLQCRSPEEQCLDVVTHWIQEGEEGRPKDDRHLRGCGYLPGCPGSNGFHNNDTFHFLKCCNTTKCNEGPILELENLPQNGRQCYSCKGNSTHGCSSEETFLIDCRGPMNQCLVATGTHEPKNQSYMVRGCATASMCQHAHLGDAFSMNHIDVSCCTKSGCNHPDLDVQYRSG
Procedure: The peptides were tested for their ability to inhibit binding of radio-labelled amino terminal fragment (ATF) of human uPA to monolayer cultures of human MDA-MB-231 breast cancer cells.
MDA-MB-231 BAG cells were harvested by trypsin/EDTA treatment and added to 5% FCS supplemented medium in 24 well cluster plates at a cell density of 100,000 cells per well or as indicated otherwise. For background estimation, wells without cells were included in order to measure binding of ^125I-labelled ligand to the plastic. Next day the adherent monolayers were washed twice in binding-buffer (0.1% bovine serum albumin (BSA; Fraction V, Sigma) and 5 mM Hepes in Eagles MEM supplemented with Glutamax-1, pH 7.4). Before binding experiments, the cells were subjected to acid treatment to liberate receptor-bound endogenous uPA. Each culture well was incubated for 3 min at 23° C. with 200 μL of 0.05 M glycine-HCl, 0.1 M NaCl, pH 3.0, after which 200 μL of 0.5 M Hepes, 0.1 M NaCl pH 7.5 was added to neutralize the acid buffer. The wells were then emptied and washed once with binding buffer. Various competitors diluted in binding buffer were then added to the wells, followed by a pre-incubation at 37° C. for 15 min. Finally, ^125I-labelled ligand was added to each well at a final concentration of 1 nM. […] Aliquots from the wells were finally measured for radioactivity on a γ-counter.

[4] = biological target: soluble recombinant variant of human uPAR (suPAR) (human) (UniProt Q03405); assay: SPR (Biacore), immobilised human suPAR
Sequence of soluble recombinant variant of human uPAR (suPAR) (human) (Q03405 23-299, change not shown): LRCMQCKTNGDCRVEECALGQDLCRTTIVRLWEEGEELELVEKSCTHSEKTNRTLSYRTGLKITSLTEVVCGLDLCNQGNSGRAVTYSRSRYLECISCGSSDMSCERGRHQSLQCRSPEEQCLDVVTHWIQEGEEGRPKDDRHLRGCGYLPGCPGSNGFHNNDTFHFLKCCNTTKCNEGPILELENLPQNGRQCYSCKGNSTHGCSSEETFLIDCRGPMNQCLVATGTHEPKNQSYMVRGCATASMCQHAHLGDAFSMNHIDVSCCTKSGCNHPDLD

[5] = biological target: soluble recombinant variant of human uPAR (suPAR) (human) (UniProt Q03405); assay: SPR (Biacore), ligand over immobilised neuramimidase-treated human suPAR
[6] = biological target: T2, human uPAR on the surface of human MDA-MB-231 breast cancer cells (human, UniProt Q03405 23-305); assay: competition with 1 nM ^125I-labelled human ATF for binding to MDA-MB-231 cell monolayers
T2 construct: whole, on cells; also called cell-surface uPAR
T2 sequence (Q03405 23-305): as the sequence (Q03405 23-305) above

koff [2]: 4e-05 s⁻¹
Molecule: CC(C)C[C@H](NC(=O)[C@H](Cc1ccc(O)cc1)NC(=O)[C@@H](CCCNC(=N)N)NC(=O)[C@@H](CO)NC(=O)[C@H](Cc1ccccc1)NC(=O)[C@H](CC1CCCCC1)NC(=O)[C@@H](N)CC(=O)O)C(=O)N[C@@H](Cc1c[nH]c2ccccc12)C(=O)N[C@@H](CO)C(=O)NCC(=O)NCCCC[C@H](NC(=O)CNC(=O)[C@H](CO)NC(=O)[C@H](Cc1c[nH]c2ccccc12)NC(=O)[C@H](CC(C)C)NC(=O)[C@H](Cc1ccc(O)cc1)NC(=O)[C@@H](CCCNC(=N)N)NC(=O)[C@@H](CO)NC(=O)[C@H](Cc1ccccc1)NC(=O)[C@H](CC1CCCCC1)NC(=O)[C@@H](N)CC(=O)O)C(=O)O [AE118, [DChaFsrYLWSG]2-K] (I: H-D[Cha]F[dS][dR]YLWSGK-OH / II: H-D[Cha]F[dS][dR]YLWSG; amide I:11-II:C; N-terminus and C-terminus assumed)
ability to inhibit ATF binding after incubation in mouse serum (stability) [1]: only a slight reduction; also recorded: more resistant than AE78

fold slower off-rate than the monomer AE105 [4]: 5 to 7 times
Relative kdiss (relative to GFD) [5]: 0.21
B1: AE120 (peptide)
peptide 1: D[Cha]F[dS][dR]YLWSG[βAla]K
peptide 2: D[Cha]F[dS][dR]YLWSG
modifications: also: lactam at chain A 12 at chain B 10 to a chain's C-terminus

fold slower off-rate than the monomer AE105 [4]: 5 to 7 times
IC50 [6]: 2 nM
Relative kdiss (relative to GFD) [5]: 0.28
B2: AE118 (peptide)
peptide 1: D[Cha]F[dS][dR]YLWSGK
peptide 2: D[Cha]F[dS][dR]YLWSG
modifications: also: lactam at chain A 11 at chain B 10 to a chain's C-terminus
notes: also called [DChaFsrYLWSG]2-K; dimer AE118

Relative kdiss (relative to GFD) [5]: > 100
Molecule: DNF[dS][dR]YLWS [AE113]

Further lines, the molecule ahead of its results:

Molecule: CC(C)C[C@H](NC(=O)[C@H](Cc1ccc(O)cc1)NC(=O)[C@@H](CCCNC(=N)N)NC(=O)[C@@H](CO)NC(=O)[C@H](Cc1ccccc1)NC(=O)[C@H](CC1CCCCC1)NC(=O)[C@@H](N)CC(=O)O)C(=O)N[C@@H](Cc1c[nH]c2ccccc12)C(=O)N[C@@H](CO)C(=O)O [AE105, DchaFsrYLWS]
IC50 ([3]; 1 nM 125I-labelled human ATF, 0.1% BSA, read-out: IC50, inhibition of the binding of ATF to MDA-MB-231 cells): 10 nM
effectiveness in inhibiting radio-labelled human ATF binding to cell-surface uPAR ([3]; 0.1% bovine serum albumin): more effective than the reference peptide AE78
koff [2]: 0.00021 s⁻¹
off-rate, fold slower than AE78 ([2]; compared with AE78): 48 fold
Relative kdiss ([2]; relative to the Growth Factor Domain of uPA (GFD = 1.0)): 1.5

Molecule: DXFSRYLWS (beta-cyclohexyl-L-alanine (Cha) at 2; D-Ser at 4; D-Arg at 5) [AE105]
fold slower off-rate than AE78 [4]: 48 fold
Relative kdiss (relative to GFD) [5]: 1.5

Molecule: DFF[dS][dR]YLWS [AE112]
Relative kdiss (relative to GFD) [5]: 12.9
koff [5]: 0.00181 s⁻¹

Molecule: AEPMPHSLNFSQYLWYT (also called Clone 20) [AE78]
IC50 [6]: 200 nM
Relative kdiss (relative to GFD) [5]: 72.1
